Legend:
Assay in all cases: fluorescence polarization; FP: 10 nM DNA, 20 mM Tris-HCl pH 8.0, 50 mM NaCl, 5% glycerol, 1 mM TCEP, 30 min at 25 C
[1] = target: DNMT3BΔ214 WT;DNMT3L MTase-like domain (human;human, UniProt Q9UBC3;Q9UJW3 215-853;179-379, |); details: protein: recombinant;recombinant; tags: tag (if any) removed by TEV;6xHis removed by TEV; chain copies: 2;2; label: 3'-FAM
[2] = target: DNMT3BΔ570 R823G;DNMT3L MTase-like domain (human;human, UniProt Q9UBC3;Q9UJW3 571-853;179-379, R823G|); details: protein: recombinant;recombinant; tags: 6xHis-SUMO removed by TEV;6xHis removed by TEV; chain copies: 2;2; label: 3'-FAM
Sequence of DNMT3BΔ570 R823G;DNMT3L MTase-like domain (Q9UJW3 179-379, chain 2 of 2, other chains not shown): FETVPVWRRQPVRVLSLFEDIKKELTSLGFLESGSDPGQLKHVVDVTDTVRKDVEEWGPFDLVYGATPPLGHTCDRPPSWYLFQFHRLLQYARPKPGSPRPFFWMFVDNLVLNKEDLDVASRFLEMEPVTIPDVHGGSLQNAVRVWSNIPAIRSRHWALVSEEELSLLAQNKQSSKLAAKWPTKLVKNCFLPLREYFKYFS

[3] = target: DNMT3BΔ214 V818M;DNMT3L MTase-like domain (human;human, UniProt Q9UBC3;Q9UJW3 215-853;179-379, V818M|); details: protein: recombinant;recombinant; tags: tag (if any) removed by TEV;6xHis removed by TEV; chain copies: 2;2; label: 3'-FAM
Sequence of DNMT3BΔ214 V818M;DNMT3L MTase-like domain (Q9UJW3 179-379, chain 2 of 2, other chains not shown): as above

[4] = target: DNMT3BΔ214 R823G;DNMT3L MTase-like domain (human;human, UniProt Q9UBC3;Q9UJW3 215-853;179-379, R823G|); details: protein: recombinant;recombinant; tags: tag (if any) removed by TEV;6xHis removed by TEV; chain copies: 2;2; label: 3'-FAM
Sequence of DNMT3BΔ214 R823G;DNMT3L MTase-like domain (Q9UJW3 179-379, chain 2 of 2, other chains not shown): as above

[5] = target: DNMT3BΔ214 D817G;DNMT3L MTase-like domain (human;human, UniProt Q9UBC3;Q9UJW3 215-853;179-379, D817G|); details: protein: recombinant;recombinant; tags: tag (if any) removed by TEV;6xHis removed by TEV; chain copies: 2;2; label: 3'-FAM
Sequence of DNMT3BΔ214 D817G;DNMT3L MTase-like domain (Q9UJW3 179-379, chain 2 of 2, other chains not shown): as above

[6] = target: DNMT3BΔ570 WT;DNMT3L MTase-like domain (human;human, UniProt Q9UBC3;Q9UJW3 571-853;179-379, |); details: protein: recombinant;recombinant; tags: 6xHis-SUMO removed by TEV;6xHis removed by TEV; chain copies: 2;2; label: 3'-FAM
Sequence of DNMT3BΔ570 WT;DNMT3L MTase-like domain (Q9UJW3 179-379, stated change not applied, chain 2 of 2, other chains not shown): as the sequence (Q9UJW3 179-379, chain 2 of 2, other chains not shown) above

[7] = target: DNMT3BΔ214 H814R;DNMT3L MTase-like domain (human;human, UniProt Q9UBC3;Q9UJW3 215-853;179-379, H814R|); details: protein: recombinant;recombinant; tags: tag (if any) removed by TEV;6xHis removed by TEV; chain copies: 2;2; label: 3'-FAM
Sequence of DNMT3BΔ214 H814R;DNMT3L MTase-like domain (Q9UJW3 179-379, chain 2 of 2, other chains not shown): as above

Sequence of DNMT3BΔ214 WT;DNMT3L MTase-like domain (Q9UJW3 179-379, stated change not applied, chain 2 of 2, other chains not shown): as the sequence (Q9UJW3 179-379, chain 2 of 2, other chains not shown) above

B1: 49-bp FAM dsDNA (dsDNA)
DNA 1: AAAACGAAAAAAAAAAAAAAAAAAAAAAAAAAAAAAAAAAAAAAAAAAA
DNA 2: TTTTTTTTTTTTTTTTTTTTTTTTTTTTTTTTTTTTTTTTTTTCGTTTT
[1]
  Kd: 2.73 ± 0.26 µM
[2]
  Kd: 0.171 ± 0.008 µM
[3]
  Kd: 7.21 ± 0.78 µM
[4]
  Kd: 5.39 ± 0.58 µM
[5]
  Kd: 58 ± 6.15 µM
[6]
  Kd: 0.07 ± 0.007 µM
[7]
  Kd: 299 ± 55.8 µM

Source: article PMC11408749, “Molecular mechanisms for DNA methylation defects induced by ICF syndrome‐linked mutations in DNMT3B”
